# Results published in the nanobody polyreactivity screen of Harvey et al. (2022).
# Experiment: yeast display, Sf9 membrane polyspecificity reagent, FACS + sequencing; frameworks hold sequencing errors
# In short: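 Using colony PCR, genes from sorted yeast display clones were amplified, then sequenced on MiSeq at 2 × 250 and filtered by CDR length. The clones had been stained with 10% biotinylated, detergent-solubilized Sf9 membrane reagent for 1 hour at 4 °C and sorted by FACS into low and high (top ~1%) gates on anti-HA and streptavidin fluorescence. Polyreactivity labels come from the gate of origin.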
row,Sequence,polyreactivity (PSR sort gate)
1,QVQLVESGGGIVQAGGSLRLSCAASGSIFITYAMGWYRPAPGKERELVAAIRDSGDRTYYADSVKGRFTISRDNAKNTVYLQMNSLKPEDTAVYYCAARIWTGRGRKLGYGYVYWGQGTQVTVSS,low polyreactivity
2,QVQLVESGGGLVQAGGSLRLSCAASGRILGDNVMGWYRQAPGKERELVAAISSGSGSTYYADSVKGRFTISRDKAKNTVYLQMNSLKPEDTAVYYCAAGPYIYPGYDYWGQGTQVTVSS,low polyreactivity
3,QVQLVESGGGLVQEGGSLRLSCAASGGTFYAYTMGWYRPAPGTERELVAAISRSGGSTYYADSVKGRITISRDTAKNSVYLQINSLKPEDTAVYYCAAVESGADYYYWGQGTQVTVSS,high polyreactivity
4,QVQLVESGGGLVQAGGSLRLSCAASGRIFSENAMGWYRQAPGKERELVAAISVSGGSTYYADSVKGRFTISRDNAKNTVYLQMNSLKPEDTAVYYCAAEYLAYYSGYDYWGQGTQVTVSS,high polyreactivity
5,QVQLVESGVGLVQAGGSLRLSCAASGNTFLPYAMGWYRQAPGKERELVAANSWSGGSTYYADSVKGRFTISRDNAKNTVYLQMNSLKPEETAVYYSARRRIGTPAYYYWGHGTQVTVSS,high polyreactivity
6,QVQLVESGGGLVQAGGSLSLSCAASGRTFLRYAMGWYRQAPGKERELVAAISWSGGRTYYADSVKGRFTISRDNAKNSVYLQMNSLKAEDTAVYYCNNVVLYGALYYYCGQGTQVTVSS,high polyreactivity
7,QVQLVESGGGLVQAGGSLRLSCAASGGIFVFYAMGWYRQAPGKERELVAAIRYGGSSTYYADSVKGRFTISRDNAKNTVYLQMNSLKPEDTAVYYCAAEHYSVYDPIGDYWGQGTQVTVSS,low polyreactivity
8,QVQLVESGGGLDQAGGSLRLSCAASGRIFYQNAMGWYRQAPGKERELVAAITSSGVSTYYADSVKGRFTISRDYAKNTVYLQMNSLKPEDTAVYYCAAYRVGYGGYSYYYWGQGTQVTVSS,high polyreactivity
9,QVQLVESGGGLVQAGGSLRLSCAASGSTFWPYTMGWYRQAPGKERELVAAISLSGGSTYYADSVKGRFTISRDNAKNTVYLQMNSLKPEDTAVYYCAAEGGYQNWHYLYDYWGQGTQVTVSS,low polyreactivity
10,QVQLVESGGGIVQARGSLRLSCAASGSILSSYAMGWYTQAPGKERELVAAISKSGTRTYYADSVKGRFTISRDNAKNTVYLQMNSLKPEDTAVYYCAARYYSRTTAMDYWGQGTQVTVSS,high polyreactivity
11,QVQLVESGGGLVQAGGSLRLSCAGSGRTFEINAMGWYRQAPGKERELVAAITVSGGSTYYADSVKGRFTISRDNAKNTVYLQMNSLKPEDTAVYYCAVEIVYGQGKEVNSWGQGTQVTVSS,low polyreactivity
12,QVQLVESGGGLVHAGGSLRLSCAASGFIFPGNAMGWYIQAPGKERDLVAAISNSGSRTYYADSVKGRFTISRDNAKNTVYLQMISLKPEDTAVYYCNADVHNRGWPYDYWGQGTQVTVSS,low polyreactivity
13,QVQLVESGGGLVQAGGSLRISCAASGRTFYTYDMGWYRQAPGKERQLVAAISSSGSTYYADSVKGRFTISRDNAKNTVYLQMNSLKPEDTAGYYCNARTSRYRRGGDSWGQGTQVTVSS,high polyreactivity
14,QVQLVESGGGLVQAGGSLRLSCAASGFTFDKNAMGWYRQAPGKERELVAAINIGSTYYADSVKGRFTISRDNAKNTVYLQMNSLKPEDSAVYYCAKEVPSGYWVNYYYWGQGTQVTVSS,low polyreactivity
15,QVQLVESGGGLVQAGGSLRLSCAASGRIFAHYAMGWYRQAPGKERELVADITDGGSTYYADSVKGRFTISRDNAKNTVYLQMNSLKPEDTAVYYCATRRGPWPSEYDSWGQGTQVTVSS,low polyreactivity
16,QVQLVESGGGLVQAGGSHRLTCAASGITFTVNAMGWYRQAPRKERELVAAISNDGSTYYADSVKGRFTISRDYAKNTVYLQMNSLKPEDTAVYYCAADTWDDFGPYGYDYWGQGTQVTVSS,low polyreactivity
17,QVQLVESGGGLVQAGGSLRLTSAASGFTFPYTDMGWYRPAPGKERELVADISSGGSTYYADSVKGRFTISRDNAKINVYLQMISLKPEDTAVYYCAAREAYSIRIYQGFGYWGQGTQVTVSS,low polyreactivity
18,QVQLVESGGGLVQAGGSLRLSCAASGSTFVAYAMGWYRQAPGKERELVAAITYSGGRTYYADSVKGRFTISRDNAKNTVYLQMNSLKPEDTAVYSCAATGVFRDEYWGQGTQVTVSS,low polyreactivity
19,QVQLVESGGGLVQAGGSLRLSCAASGSIFWAYAMGWYRQAPGKERELVAAISRGGTTTYADSVKGRFTISRDNAKNTVYLQMNSLKPEDTAVYYCARRAVYSKRRYDYWGQGTQVTVSS,low polyreactivity
20,QVQLVESGGGLVQAGGSLRLSCAASGRTFTFYAMGWYRQAPGKERELVAAISTRGGRTYYADSVKGRFTISRDNAKNTVYLQMNSLKPEDTAVYYCAARARRRYYYWGQGTQVTVSS,high polyreactivity
21,QVQLVESGGGLVQAGGSLRLSCAASGSISAVNAMGWYRQAPGKERELVAAITYSGGSTYYADSVKGRFTISRDHAQNTVYLQINSLKPEDTAVYNCAARARYPNWTYYYWGQGTQVTVSS,high polyreactivity

row,Sequence,polyreactivity (PSR sort gate)
1,QVQLVESGGGLGQAGGSLRLSCAASGYTFARNAMGWYRQAPGKEREMVAAINWSGTNTYYADSVKGRFTISRDNAKNTVYLQMNSLKPEDTAVYYCAKDLYFSGYEFDYWGQGTQVTVSS,low polyreactivity
2,QVQLVESGGGLVQAGGSLRLSCAASGSIFSYYAMGWYRQAPGKERELVAAISKRGASTYYADSVKGRFTISRDNAKNTVYLQMNSLKPEDTAVYYCAAYRQGSAYDYWGQGTQVTVSS,high polyreactivity
3,QVQLVESGGGLVQAGGSLRLSCAASGRTFYDNAMGWYRQAPGNERELVAAITVRGGSTRYADSVKGRFTISRDNAKNTVYLQLNSLKPEDTAVYYCAATQTPYRYHYDYWGQGTQVTVSS,high polyreactivity
4,QVQLEDSGGGLVQAGGSLRLSCAASGSTWVYAMGWYRQAPGTERELVASITVSGGSTYYADSVKGRFTISRDNAKNTVYLQMNSLKPEDTAVYYCAAYDSYRKFKYWRQGTQVTVSS,high polyreactivity
5,QVQLVESVGGLVQAGGSLRLSCAASGSTFDDNAMGWYRQAPGKERELVASITYRGGSTYYADSVKGRFTISRDNAKNTVYLQMNSLKPEDTAVYYCAKGHYFKYDYWGQGTQVTVSS,low polyreactivity
6,QFQLVESGGGLVQAGGSLRLRCAPSGNTLIVKAMGWYRQAPGKEMELVAAITRDGRTNYADSVKGRFTISRDNAKNTVYLQMNSLKPEDTAVYYCAAEGVPDALDRDYWGQGTQVTVSS,low polyreactivity
7,QVQLVESGGGLVQAGGSLRLSCAASGSIFSSNTMGWYRQAPGKERELVAAITVSGGRTYYADSVKGRFTISRDNAKNTVYLQMNSLKPEDTAVYYCATRWFGNSYSYRAYDYWGQGTQVTVSS,high polyreactivity
8,QVQLVESCGGLVQARGSLRLSCAACGRIFIRYALGWYSQAPGTERELVAAITRGGSTYYADSVKGRFTISRDNAKITVFLQMNSVKPEDTAVYYCAGRVGYPYYYWGQGTEVTVSS,high polyreactivity
9,QVQLVESGGGLVQAGGSLRLSCAASGFIFGRNAMGWYRQAPGKERELVAAINWRGGSTYYADSVKGRCTISRDNAKNTVYLQMNSLKPEDTAVYYCAARGPYRYGYDYWGQGTQVTVSS,high polyreactivity
10,QVQLVESGGGLVQAGGSLRLSCAATGSIFNFYAMGWYRQAPGKERELVAAIDQNGGSTYYADSVKGRFTISRDNAKNTVYLQMNSLKPVDTAVYYCAKDHQSGRRTYTYRYDYWGQGTQVTVSS,low polyreactivity
11,QVQLEESGGGLVQAGGSLRLTCAASGLIFHDYAMGWYRQATGTEMELVAAISWSDGTTYYADSVKGRFTISRDNAKITVYLQMNSLKPEDTAVYYCAAEEVSGWEYDFWGQGTQVTVSS,high polyreactivity
12,QVQLVESGGGLVQAGGSLRLSCAASGRIFLRNVMGWYRQAPGKERELVAAISARGGSTYYADSVKGRFTISRDNGKNSVYLQMNSLKPEDTAVYYCAAGYPVSPSKYYYWGQGTQVTVSS,high polyreactivity
13,QVQLVESGGGLVQAGGSLRLSCAASGSSIYVYVMGWYRQAPGKERELVAVIDWRGGSTYYADSVKGRFTISRDNAKNTVYLQMNSLKPEDSSVYYCNKVAQFYYKLPYYKERDWGQGTQVTVSS,low polyreactivity
14,QVQLVESGGGLVQAGGSLRLSCAASGSTFSTNAMGCYRQAPGKERELVAAISGRGGRTYYADSVKGRFTISRDNAKNTVYLQMTSLKPEDTAVYYCNTDSYLRMDYWGQGTQVTVSS,high polyreactivity
15,QVQLVESGGGLVQAGGSLRLSCAASGSIFPGYAMGWSRPAPGKERELVAAISRDGSTNYADSVKGRFTISRDNAKITVYLQMNSLKPEDTAVYYCARRNPLGGNEHDYWGQGTQVTVSS,low polyreactivity
16,QVQLVESGGGLVQAGGSLRLSCAASGRTFSGYAMGWYRQAPGKERELVAAITGRGGSTYYADSVKGRFTISRDNAKNTVYLQMNSLKPEDTAVYYCAAYGIWYRVDYWGQGTQVTVSS,high polyreactivity
17,QVQLVESGGGLVQAGGSLRLSCADSGRILTFNAMGWYRQAPGKERELVASISNGGSTNYADSVKGRFTISRDNAKNTVYLQMNSLKPEDTAVYYCDADWRQGMWYGYYYWGQGTQVTVSS,low polyreactivity
18,QVQLVESGGGLVQAGGSLRLSCAASGSTFFRNAMGWYRQAPGKDRELVAAISSSGGRTYYADSVKGRFTISRDNAKNTVYLQMNSLKPVETAVYYCAVVSSHYKGPGRNGYDYWAQGTQVTVSS,high polyreactivity
19,QVQLVESGGGLLQAGGSLRLSCAASGLIFANYAMGWYRQAPGKERELVAAITWSGGTTYYADSVKGRFTISRDNAKNTVYLQMNSLKPEDTAVYYCAAEVPYYQAAEYDYWGQGTQVTVSS,low polyreactivity
20,QVQLVESGGGLVQAGGSLRLSCAASGSTFLRNDMGWYRQAPGKERELVAAITSGGITNYADSVKGRFTISRDNAKNTVSLQMNSLKPEDTAVYYCNKDSDLHHYHTEFDYWGQGTQVTVSS,low polyreactivity
